Molecular target: Mouse IMPαΔIBB (residues 70–529) (mouse, UniProt P52293 70-529)
Test: crystal structure; complex of IMPαΔIBB and Prp20 NLS (GST tag removed by thrombin) in 20 mM Tris pH 7.8, 125 mM NaCl, 20 mg/mL; crystals in 500 mM sodium citrate pH 6–8, 10 mM DTT; 2.1 Å
Details: both partners purified

binding result: binds
B1: Prp20 (S. cerevisiae RanGEF) NLS (residues 3–23) (peptide)
chain: KRTVATNGDASGAHRAKKMSK
notes: Prp20 (RanGEF), S. cerevisiae, bipartite NLS, residues 3-23; Only KR4 and RAKKMSK23 are in the final model; also called Prp20 NLS; Prp20NLS
